Source: patent US20250282885A1 (VST BIO, published 2025)

Experiments:
pig Sdc2 [1] = target: T1, pig Sdc2 (pig, UniProt F1S0L5 19-145); assay: Octet BLI, HIS1K sensor loaded with pigSdc2, antibody as sample; Full R2 0.9504
T1 construct: also called pSdc2

human Sdc2 [2] = target: T2, human Sdc2 (human, UniProt P34741 19-144, limits assumed); assay: Octet tandem binning; saturating Ab f5 19844-R4M-P3-E06
T2 construct: Antigen of the Octet tandem binning, loaded on biosensors at 100 nM; also called huSdc2; hSdc2
T2 sequence (P34741 19-144 limits assumed): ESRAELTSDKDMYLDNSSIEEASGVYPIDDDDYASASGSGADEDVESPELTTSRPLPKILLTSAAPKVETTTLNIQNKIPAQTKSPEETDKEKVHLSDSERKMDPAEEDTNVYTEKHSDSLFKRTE
Method: (§1) These studies were performed in a tandem binning assay format with human Sdc2, used as the antigen (concentration of 100 nM). Antigen loaded biosensors were dipped in a saturating solution of antibody (25 μg/ml) for 240 seconds followed by a competing antibody at 5 μg/ml for 180 seconds. […] Since saturation is not possible to achieve saturation with these clones, they are removed in as ligands, but retained in the analyte orientation in the analysis. A table summarizing the results of epitope binning of the 18 antibodies against huSdc2 is illustrated in FIG. 30. Data is normalized, where the raw binding signal from Competing Ab for a given Saturating Ab is divided by binding in the absence a […] (“buffer”). The threshold determining the matrix color is adjustable and dependent upon Ag-Ab binding. […] Table rows are based on similar looking binding profiles. Note that the coloration/cutoff is subjective, yellow color added to represent injections with ambiguous or very weak sandwiching signals. FIG. 31 illustrates a clustergram of the epitope binning studies, which was generated from the normalized binning data by importation into the statistical computing program R (The R Project for Statistical Computing: at r-project.org) and generation of a clustergram with the pvclust package.

human Sdc2 [3] = target: T2, human Sdc2; assay: Octet tandem binning; saturating Ab f3 19838-6N03-A
Method: as §1

human Sdc2 [4] = target: T2, human Sdc2; assay: Octet tandem binning; saturating Ab f8 19844-R4M-P2-C02
Method: as §1

[5] = target: human Sdc2 on Human Umbilical Vein Endothelial Cells (HUVEC) (human, UniProt P34741 19-201); assay: cell-based or functional assay
Sequence of human Sdc2 on Human Umbilical Vein Endothelial Cells (HUVEC) (P34741 19-201 limits assumed): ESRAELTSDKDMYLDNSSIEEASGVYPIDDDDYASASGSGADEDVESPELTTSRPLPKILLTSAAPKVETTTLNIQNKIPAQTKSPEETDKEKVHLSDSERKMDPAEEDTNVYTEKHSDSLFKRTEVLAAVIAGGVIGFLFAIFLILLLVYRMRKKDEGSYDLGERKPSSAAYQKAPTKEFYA

human Sdc2 [6] = target: T2, human Sdc2; assay: Octet tandem binning; saturating Ab f10 19838-10-I12-A
Method: as §1

human Sdc2 [7] = target: T2, human Sdc2; assay: Octet tandem binning; saturating Ab f9 19838-6-E17-A
Method: as §1

human Sdc2 [8] = target: T2, human Sdc2; assay: Octet tandem binning; saturating Ab m5 19844-R4M-P3-A12 (row boxed, self-self >0.09)
Method: as §1

human Sdc2 [9] = target: T2, human Sdc2; assay: Octet tandem binning; saturating Ab m6 19838-20H19-AA (marked non-binding ligand)
Method: as §1

human Sdc2 [10] = target: T2, human Sdc2; assay: Octet tandem binning; saturating Ab f7 19844-R3-P3-A12
Method: as §1

human Sdc2 [11] = target: T2, human Sdc2; assay: Octet tandem binning; saturating Ab m8 19844-R4M-P1-B01 (marked non-binding ligand)
Method: as §1

human Sdc2 [12] = target: T2, human Sdc2; assay: Octet tandem binning; saturating Ab m2 19838-8G17-A
Method: as §1

human Sdc2 [13] = target: T2, human Sdc2; assay: Octet BLI, heading box over the sensorgram
pig Sdc2 [14] = target: T1, pig Sdc2; assay: Octet BLI, heading box over the sensorgram
human Sdc2 [15] = target: T2, human Sdc2; assay: Octet tandem binning; saturating Ab m4 19844-R4M-P1-A10
Method: as §1

human Sdc2 [16] = target: T2, human Sdc2; assay: Octet tandem binning; saturating Ab f6 19844-R3-P3-E09
Method: as §1

human Sdc2 [17] = target: T2, human Sdc2; assay: Octet tandem binning; saturating Ab m7 19844-R3-P1-E07
Method: as §1

human Sdc2 [18] = target: T2, human Sdc2; assay: Kd (human Sdc2), summary table of the mAbs
human Sdc2 [19] = target: T2, human Sdc2; assay: Octet tandem binning; saturating Ab m1 19838-20H19-AB
Method: as §1

human Sdc2 [20] = target: T2, human Sdc2; assay: Octet tandem binning; saturating Ab f11 19838-20-H19-A
Method: as §1

human Sdc2 [21] = target: T2, human Sdc2; assay: Octet tandem binning; Buffer in place of a saturating Ab
Method: as §1

human Sdc2 [22] = target: T2, human Sdc2; assay: Octet tandem binning; saturating Ab m3 19844-R3-P1-C02 (row boxed, self-self >0.09)
Method: as §1

human Sdc2 [23] = target: T2, human Sdc2; assay: Octet BLI, HIS1K sensor loaded with huSdc2, antibody as sample; Full R2 0.9738
human Sdc2 [24] = target: T2, human Sdc2; assay: Octet tandem binning; saturating Ab f12 19838-6-N03-A
Method: as §1

human Sdc2 [25] = target: T2, human Sdc2; assay: Octet BLI, HIS1K sensor loaded with huSdc2, antibody as sample; Full R2 0.998
pig Sdc2 [26] = target: T1, pig Sdc2; assay: Octet BLI, HIS1K sensor loaded with pigSdc2, antibody as sample; Full R2 0.9988
Method: (§2) In order to characterize the binding affinity and in vivo/in vitro functional ability of the twelve clones generated by the previous studies and disclosed in Table 1, a series of assays were performed on each clone. These assays measured the affinity of each antibody clone for human, pig, and mouse Sdc2 using an Octet® binding assay system. Additionally, the functional ability of each clone to inhibit VEGFA-driven permeability (see Santiago, et al. (2021) J Am Heart Assoc. 10(18):e020521) was assessed in two therapeutic settings: a “prevention” study in which three concentrations of antibody (5 μg/ml, 10 μg/ml, 15 μg/ml, 20 μg/ml, and/or 40 μg/ml depending on the study) were pre-incubated for an hour before administration of 100 ng/ml of VEGFA, and a “treatment” study in which 3 hours of pre-treatment with 100 ng/ml VEGFA were followed by treatment with antibody at 20 μg/ml or 40 μg/ml. Results are shown for 8-G17 in FIG. 8 and FIG. 9, 20-H19-AB in FIG. 10 and FIG. 11 (FIG. 12 for monkey ECs), R3-P3-C11 in FIG. 13 and FIG. 14, R4M-P3-E06 in FIG. 15 and FIG. 16, R3-P3-E09 in FIG. 17 and FIG. 18, R3-P1-C02 in FIG. 19 and FIG. 20, R3-P3-A12 in FIG. 21 and FIG. 22, R4M-P3-A12 in FIG. 23 and FIG. 24, and R4M-P1-A10 in FIG. 25 and FIG. 26.

pig Sdc2 [27] = target: T1, pig Sdc2; assay: Octet BLI, HIS1K sensor loaded with pigSdc2, antibody as sample; Full R2 0.9988; heading box reads Pig Sdc2 (Kd~ low femtomolar)
Method: as §2

human Sdc2 [28] = target: T2, human Sdc2; assay: Octet tandem binning; saturating Ab f4 19844-R3-P3-C11
Method: as §1

human Sdc2 [29] = target: T2, human Sdc2; assay: Octet BLI, heading box over the sensorgram; remark: listed apart in the source

Binder	raw competing-Ab binding signal (human Sdc2 [2])	raw competing-Ab binding signal (human Sdc2 [3])	raw competing-Ab binding signal (human Sdc2 [4])	% Inhibition of VEGFA-induced permeability at 24hrs (20ug/ml) [5] [%]	raw competing-Ab binding signal (human Sdc2 [6])	raw competing-Ab binding signal (human Sdc2 [7])	raw competing-Ab binding signal (human Sdc2 [8])	raw competing-Ab binding signal (human Sdc2 [9])	raw competing-Ab binding signal (human Sdc2 [10])	raw competing-Ab binding signal (human Sdc2 [11])	raw competing-Ab binding signal (human Sdc2 [12])	raw competing-Ab binding signal (human Sdc2 [15])	raw competing-Ab binding signal (human Sdc2 [16])	raw competing-Ab binding signal (human Sdc2 [17])	Kd (human Sdc2 [18]) [nM]	raw competing-Ab binding signal (human Sdc2 [20])	raw competing-Ab binding signal (human Sdc2 [21])	raw competing-Ab binding signal (human Sdc2 [22])	raw competing-Ab binding signal (human Sdc2 [24])	other results
R3-P3-C11 (antibody, human IgG1, kappa, V domains shown, human IgG1 kappa from the phage campaign) VH: EVQLVESGGGLVQPGRSLRLACEASGFTFNNYAVHWVRQAPGKGLEWVAVISYDGTNKYYSDSMKGRFTISRDNSKNTLYLQINSLRVEDTAVYFCARGNYVRRDSFDIWGQGTMVTVSS VL: DIQMTQSPPSLSASVGDRVTITCRASQSISSYLNWYQQKPGKAPKLLIYGASSLQSGVPLRFSGSGSGADFTLTISSLQPEDFATYYCQQSYISPITFGQGTRLEIKR	0.61	0.645	0.479	100	0.351	0.542	0.562	0.593	-0.0267	0.576	0.629	0.518	0.299	0.573	2.26	0.585	0.523	0.491	0.697	Kd (pig Sdc2 [1]): 10.2 nM; koff (pig Sdc2 [1]): 0.0417 s⁻¹; kon (pig Sdc2 [1]): 4.1e+06 M⁻¹ s⁻¹; Kd (human Sdc2 [13]): ~2.26 nM; Kd (pig Sdc2 [14]): ~10.2 nM; raw competing-Ab binding signal (human Sdc2 [19]): 0.569; Kd (human Sdc2 [23]): 2.26 nM; koff (human Sdc2 [23]): 0.00304 s⁻¹; kon (human Sdc2 [23]): 1.34e+06 M⁻¹ s⁻¹
20-H19-AB (antibody, mouse IgG1, kappa, V domains shown, PentaMice hybridoma clone, made recombinantly in CHO cells; also called 20-H1-AB) VH: EVQLVESGGGLVQPKGSLKLSCAASGFTFNIYAMHWVRQAPGKGLEWIARIGSKSSYYATYYADSVKDRFTISRDDSQSMLYLQTNNLKTEDTAMYYCVSGKGDWGQGTTLTVSS VL: not shown	0.158	-0.0355	0.0763	90	0.0503	0.171	0.173	0.192	-0.102	0.161	-0.0786	0.0759	-0.0179	0.214	0.37	0.0503	0.197	0.0781	0.0082	Kd (human Sdc2 [25]): 0.369 nM; koff (human Sdc2 [25]): 3.18e-05 s⁻¹; kon (human Sdc2 [25]): 86200 M⁻¹ s⁻¹; koff (pig Sdc2 [26]): < 1e-07 s⁻¹; kon (pig Sdc2 [26]): 70700 M⁻¹ s⁻¹; Kd (pig Sdc2 [27]): < 0.001 nM; raw competing-Ab binding signal (human Sdc2 [28]): -0.0618; Kd (human Sdc2 [29]): ~0.37 nM
